Reference: the supplement of paper PMC12764529
± gives the half width of the 95% confidence interval.

What was measured:
[1] = folding stability dG unfold from chymotrypsin proteolysis; higher = more stable
Procedure, shortened: (§1)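 Bayesian fitting of sequencing counts gave K50 for each design. Unfolding free energy followed by setting this against a sequence-predicted unfolded-state K50 and a shared folded-state K50, either per protease or with trypsin and chymotrypsin combined. The designs, under 80 residues and lacking cysteine, were digested in a PA-tagged cDNA display format at 11 threefold-diluted protease concentrations and without protease, and only those with AlphaFold2 dimer inter-PAE above 15 were kept.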

[2] = folding stability dG unfold (combined trypsin and chymotrypsin); higher = more stable
Procedure, shortened: as §1

[3] = folding stability dG unfold from trypsin proteolysis; higher = more stable
Procedure, shortened: as §1

Row | Sequence | folding stability dG unfold [1] | folding stability dG unfold [2] | folding stability dG unfold [3]
1 | SAGGSFPIADVKEVKVEAYPETNTAKVPFTFPNGVTAVADAYLDPVTGRPVLVVRTPDGRLVVLPLSAGGSA [r2_490_TrMRF] | 1.15 ± 0.12 kcal/mol | 1.3 ± 0.094 kcal/mol | 1.43 ± 0.032 kcal/mol
2 | SAGGSARALLEELEVLSEEDRGDFTVVTVKGPAAEYPAEEVRAALEALGIAVEYDPATGEVTVYVASAGGSA [r15_599_JUSTAS] | 0.964 ± 0.084 kcal/mol | 0.69 ± 0.071 kcal/mol | -0.0454 ± 0.023 kcal/mol
3 | SAGGKVVTVEVELENGVRVTVEFVEEDGYLALKVTVEVRLPAPPVTTADGREKEVTRRLELVILLPKESAGG [r13_780_TrROS_Hall] | 3.17 ± 0.15 kcal/mol | 3.05 ± 0.13 kcal/mol | 2.72 ± 0.14 kcal/mol
4 | FTMDEMKELADNIADNLAKEDGYKIKSVNIDATIPIPVYMKVRPDPNGEPRWEMHWMPIKVKINVEIKPPNS [r1_91_TrROS] | 2.55 ± 0.09 kcal/mol | 2.55 ± 0.36 kcal/mol | 2.02 ± 0.18 kcal/mol
5 | SAGMVEIVHDPAGYYTVNVTLTKEGKPTSRTIRVPPELSPEEVKALVEELAKEEGVDDVEVTVIPLPESAGG [r19_31_JUSTAS] | 1.51 ± 0.12 kcal/mol | 1.41 ± 0.12 kcal/mol | 1.1 ± 0.035 kcal/mol
6 | SAGGSAGGSAGGSSSVSVDTDPETGLITVTTYSSSGGVTVTLYEKPPDGSLTPVSTTAVSAGGSAGGSAGGS [r4_106_JUSTAS] | 0.844 ± 0.07 kcal/mol | 1.01 ± 0.046 kcal/mol | 1.08 ± 0.045 kcal/mol
7 | SDPNKPWTAEEIAKIIEEKILEEFDVEEIIPKELKVFPKEGTVKVKMLVKYKGEPGKYFELEVEISPEELSA [r9_1002_TrMRF] | 2.9 ± 0.038 kcal/mol | 2.52 ± 0.081 kcal/mol | 1.58 ± 0.037 kcal/mol
8 | SAGGPVVTTTTEYDPSTGKTYTVTTVPGSATQTTTYTLPDGTVLTTTTTVSPTTGGVTSTTPTTTPVPASAG [r5_587_JUSTAS] | 1.31 ± 0.089 kcal/mol | 1.39 ± 0.061 kcal/mol | 1.3 ± 0.046 kcal/mol
9 | SAMKIAKVTYEPVKVDGKELLLFKVEIVHSETGEKEEKTFLTEDPEDFIENLLKHPDIDIVEILEFKEGSAG [r14_464_TrMRF] | 3.43 ± 0.066 kcal/mol | 3.21 ± 0.083 kcal/mol | 2.32 ± 0.13 kcal/mol
10 | SAGMEEEEVVLKIRVKDPETGEEKTFEVKLKDIEKVEVDEDGNIRIYLKEDGKEITIPADKITEVELLSAGG [r19_416_TrROS_Hall] | 3.86 ± 0.059 kcal/mol | 3.71 ± 0.089 kcal/mol | 3.15 ± 0.11 kcal/mol
11 | SKGKKVLVIPATLPEAEEIAKALGLPPSLFPSSKKLVDALKEAFPENVVVVVAPAKPVTEEELKALAEGKSA [r9_74_TrMRF] | 0.93 ± 0.039 kcal/mol | 0.678 ± 0.081 kcal/mol | 0.19 ± 0.037 kcal/mol
12 | SAGGMPIYARIVLYPPETGKFSELEIEFPEFESPDEVVEAAKEIAEKLGGPIARIEIYDPKTGKPFPDSAGG [r13_771_TrMRF] | 0.281 ± 0.083 kcal/mol | 0.314 ± 0.27 kcal/mol | 0.592 ± 0.094 kcal/mol
13 | SAGGSAGGMYKVTITVTDPATGKTVATETLTLESEEEAKEYVEAVKKELPSSLTVSATITKVPESAGGSAGG [r6_690_JUSTAS] | 4.41 ± 0.072 kcal/mol | 4.58 ± 0.12 kcal/mol | 4.77 ± 0.46 kcal/mol
14 | SAGGSAGGRWYIMIEIRFPGNGRQFSFMIPIPPGDEVDIKLDELAEWFGFPNVKVDIQVMPLEKSAGGSAGG [r6_722_TrROS] | 4.75 ± 0.12 kcal/mol | 4.45 ± 0.18 kcal/mol | 3.41 ± 0.3 kcal/mol
15 | SAGGSAGGSAGGKIDRIQLHYNPGGNVYFRIYGPNGKPRYFMMPAEDLEDFPNAPIEIYPSAGGSAGGSAGG [r7_238_TrROS] | 0.847 ± 0.11 kcal/mol | 0.864 ± 0.096 kcal/mol | 0.648 ± 0.04 kcal/mol
16 | SAMLTILSVETHTLPNGEEIVTVTLKTPDLETLDALLAELGLTGTRDPDDPQVVTITTSREKVQEIKEKSAG [r14_777_JUSTAS] | 4.71 ± 0.2 kcal/mol | 4.57 ± 0.3 kcal/mol | 3.34 ± 0.14 kcal/mol
17 | SKTFYAGLDVYFDPDSDELTALVGVRSEDGSYEPSLEEVAREVAAKLRELGYEVEVEPLPGYARIRVKPPSA [r9_510_TrMRF] | 1.72 ± 0.069 kcal/mol | 1.71 ± 0.057 kcal/mol | 1.67 ± 0.039 kcal/mol
